PMC10353998 (2023)

B1: eGFP-GGSG-Flag-RBM20-WT [human] / Transportin-3 [human (endogenous in HeLa)] (parent complex)
chain 1: MVLAAAMSQDADPSGPEQPDRVACSVPGARASPAPSGPRGMQQPPPPPQPPPPPQAGLPQIIQNAAKLLDKNPFSVSNPNPLLPSPASLQLAQLQAQLTLHRLKLAQTAVTNNTAAATVLNQVLSKVAMSQPLFNQLRHPSVITGPHGHAGVPQHAAAIPSTRFPSNAIAFSPPSQTRGPGPSMNLPNQPPSAMVMHPFTGVMPQTPGQPAVILGIGKTGPAPATAGFYEYGKASSGQTYGPETDGQPGFLPSSASTSGSVTYEGHYSHTGQDGQAAFSKDFYGPNSQGSHVASGFPAEQAGGLKSEVGPLLQGTNSQWESPHGFSGQSKPDLTAGPMWPPPHNQPYELYDPEEPTSDRTPPSFGGRLNNSKQGFIGAGRRAKEDQALLSVRPLQAHELNDFHGVAPLHLPHICSICDKKVFDLKDWELHVKGKLHAQKCLVFSENAGIRCILGSAEGTLCASPNSTAVYNPAGNEDYASNLGTSYVPIPARSFTQSSPTFPLASVGTTFAQRKGAGRVVHICNLPEGSCTENDVINLGLPFGKVTNYILMKSTNQAFLEMAYTEAAQAMVQYYQEKSAVINGEKLLIRMSKRYKELQLKKPGKAVAAIIQDIHSQRERDMFREADRYGPERPRSRSPVSRSLSPRSHTPSFTSCSSSHSPPGPSRADWGNGRDSWEHSPYARREEERDPAPWRDNGDDKRDRMDPWAHDRKHHPRQLDKAELDERPEGGRPHREKYPRSGSPNLPHSVSSYKSREDGYYRKEPKAKSDKYLKQQQDAPGRSRRKDEARLRESRHPHPDDSGKEDGLGPKVTRAPEGAKAKQNEKNKTKRTDRDQEGADDRKENTMAENEAGKEEQEGMEESPQSVGRQEKEAEFSDPENTRTKKEQDWESESEAEGESWYPTNMEELVTVDEVGEEEDFIVEPDIPELEEIVPIDQKDKICPETCLCVTTTLDLDLAQDFPKEGVKAVGNGAAEISLKSPRELPSASTSCPSDMDVEMPGLNLDAERKPAESETGLSLEDSDCYEKEAKGVESSDVHPAPTVQQMSSPKPAEERARQPSPFVDDCKTRGTPEDGACEGSPLEEKASPPIETDLQNQACQEVLTPENSRYVEMKSLEVRSPEYTEVELKQPLSLPSWEPEDVFSELSIPLGVEFVVPRTGFYCKLCGLFYTSEETAKMSHCRSAVHYRNLQKYLSQLAEEGLKETEGADSPRPEDSGIVPRFERKKL
chain 2: MEGAKPTLQLVYQAVQALYHDPDPSGKERASFWLGELQRSVHAWEISDQLLQIRQDVESCYFAAQTMKMKIQTSFYELPTDSHASLRDSLLTHIQNLKDLSPVIVTQLALAIADLALQMPSWKGCVQTLVEKYSNDVTSLPFLLEILTVLPEEVHSRSLRIGANRRTEIIEDLAFYSSTVVSLLMTCVEKAGTDEKMLMKVFRCLGSWFNLGVLDSNFMANNKLLALLFEVLQQDKTSSNLHEAASDCVCSALYAIENVETNLPLAMQLFQGVLTLETAYHMAVAREDLDKVLNYCRIFTELCETFLEKIVCTPGQGLGDLRTLELLLICAGHPQYEVVEISFNFWYRLGEHLYKTNDEVIHGIFKAYIQRLLHALARHCQLEPDHEGVPEETDDFGEFRMRVSDLVKDLIFLIGSMECFAQLYSTLKEGNPPWEVTEAVLFIMAAIAKSVDPENNPTLVEVLEGVVRLPETVHTAVRYTSIELVGEMSEVVDRNPQFLDPVLGYLMKGLCEKPLASAAAKAIHNICSVCRDHMAQHFNGLLEIARSLDSFLLSPEAAVGLLKGTALVLARLPLDKITECLSELCSVQVMALKKLLSQEPSNGISSDPTVFLDRLAVIFRHTNPIVENGQTHPCQKVIQEIWPVLSETLNKHRADNRIVERCCRCLRFAVRCVGKGSAALLQPLVTQMVNVYHVHQHSCFLYLGSILVDEYGMEEGCRQGLLDMLQALCIPTFQLLEQQNGLQNHPDTVDDLFRLATRFIQRSPVTLLRSQVVIPILQWAIASTTLDHRDANCSVMRFLRDLIHTGVANDHEEDFELRKELIGQVMNQLGQQLVSQLLHTCCFCLPPYTLPDVAEVLWEIMQVDRPTFCRWLENSLKGLPKETTVGAVTVTHKQLTDFHKQVTSAEECKQVCWALRDFTRLFR

Variants of: B1
Experiment: co-immunoprecipitation, mass spectrometry; cytoplasmic fractions, HeLa; normalized to Neg; n = 3; parent: 1.7; read off a plot

Q: With chain 1 P633L as the variant, how does the screen value read?
A: The screen value was about 1.5.

Q: With chain 1 R634Q as the variant, how does the screen value read?
A: The screen value was about 0.9.

Q: How did the screen value turn out when chain 1 R634Q, chain 1 S635E, chain 1 S637E was run?
A: The screen value was about 0.3.

Variants of: B1
Experiment: co-immunoprecipitation, western blot quantification; HeLa cells expressing eGFP-RBM20, cytoplasmic fraction; n = 3; parent: 3.3; read off a plot

Q: chain 1 P633L was tested. Which response did it give?
A: The response was about 2.4 relative HRP signal.

Q: For chain 1 R634Q, which response is on record?
A: Its response is about 1.6 relative HRP signal.

Q: How did the response turn out when chain 1 R634Q, chain 1 S635E, chain 1 S637E was run?
A: Its response is about 1.2 relative HRP signal.
